From patent JP2014043405A (dated 2014)
Changes are numbered by the printed parent chain. In names and notes the source's numbering stands.

B1: Fv4-IgG1-F20 (antibody)
heavy: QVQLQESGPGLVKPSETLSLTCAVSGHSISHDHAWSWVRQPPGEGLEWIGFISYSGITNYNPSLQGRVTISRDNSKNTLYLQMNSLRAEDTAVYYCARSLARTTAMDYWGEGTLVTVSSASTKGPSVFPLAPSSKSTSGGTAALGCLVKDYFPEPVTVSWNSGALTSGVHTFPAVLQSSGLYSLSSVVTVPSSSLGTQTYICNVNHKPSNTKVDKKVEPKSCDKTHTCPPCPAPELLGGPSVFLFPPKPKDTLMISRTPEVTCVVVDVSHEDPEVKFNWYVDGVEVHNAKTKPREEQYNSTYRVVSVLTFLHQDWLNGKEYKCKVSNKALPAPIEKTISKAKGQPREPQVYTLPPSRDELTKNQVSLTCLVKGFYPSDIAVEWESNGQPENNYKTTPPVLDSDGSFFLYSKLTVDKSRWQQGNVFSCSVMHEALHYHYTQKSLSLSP
light: DIQMTQSPSSLSASVGDSVTITCQASTDISSHLNWYQQKPGKAPELLIYYGSHLLSGVPSRFSGSGSGTDFTFTISSLEAEDAATYYCGQGNRLPYTFGQGTKVEIERTVAAPSVFIFPPSDEQLKSGTASVVCLLNNFYPREAKVQWKVDNALQSGNSQESVTEQDSKDSTYSLSSTLTLSKADYEKHKVYACEVTHQGLSSPVTKSFNRGEC
notes: also called VH3-IgG1-F20/VL3-CK
B2: IL6R-BP423/IL6R-L (antibody, human IgG1)
heavy: QVQLQESGPGLVKPSETLSLTCAVSGHSISHDHAWSWVRQPPGEGLEWIGFISYSGITNYNPSLQGRVTISRDNSKNTLYLQMNSLRAEDTAVYYCARSLARTTAMDYWGEGTLVTVSSASTKGPSVFPLAPSSKSTSGGTAALGCLVKDYFPEPVTVSWNSGALTSGVHTFPAVLQSSGLYSLSSVVTVPSSSLGTQTYICNVNHKPSNTKVDKKVEPKSCDKTHTCPPCPAPDLLGDDSVFLFPPKPKDTLMISRTPEVTCVVVDVAEEDGEVKFNWYVDGVEVHNAKTKPREEQYNSTYRVVSVLTVLHQDWLNGKEYKCKVSNKALPRPIEKTISKAKGQPREPQVYTLPPSRDELTKNQVSLTCLVKGFYPSDIAVEWESNGQPENNYKTTPPVLDSDGSFFLYSKLTVDKSRWQQGNVFSCSVMHEALHNHYTQESLSLSP
light: DIQMTQSPSSLSASVGDRVTITCRASQDISSYLNWYQQKPGKAPKLLIYYTSRLHSGVPSRFSGSGSGTDFTFTISSLQPEDIATYYCQQGNTLPYTFGQGTKVEIK
B3: IL6R-BP231/IL6R-L (antibody)
chain 1: B2 heavy with D235E, A269S, E270D, Y298D
chain 2: not shown
B4: IL6R-G4d/IL6R-L (antibody, human IgG4 S228P)
heavy: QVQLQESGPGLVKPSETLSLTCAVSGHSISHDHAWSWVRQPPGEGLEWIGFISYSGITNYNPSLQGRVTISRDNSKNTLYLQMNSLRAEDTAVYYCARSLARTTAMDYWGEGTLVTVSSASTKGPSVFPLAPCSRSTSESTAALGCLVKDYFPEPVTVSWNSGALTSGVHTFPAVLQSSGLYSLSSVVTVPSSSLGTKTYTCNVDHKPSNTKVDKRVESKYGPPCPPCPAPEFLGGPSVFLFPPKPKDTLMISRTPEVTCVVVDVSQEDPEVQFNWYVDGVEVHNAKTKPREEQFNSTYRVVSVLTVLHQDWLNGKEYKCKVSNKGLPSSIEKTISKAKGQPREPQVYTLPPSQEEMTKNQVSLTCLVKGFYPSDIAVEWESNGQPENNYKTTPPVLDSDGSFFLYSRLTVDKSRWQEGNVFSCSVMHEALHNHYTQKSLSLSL
light: B2 light
B5: IL6R-BP473/IL6R-L (antibody)
chain 1: B2 heavy with A269S, E270D, Y298D, A329G
chain 2: not shown
B6: IL6R-BP234/IL6R-L (antibody)
chain 1: B2 heavy with L236Y, A269Q, E270D, Y298D, K328D, R332K
chain 2: not shown
B7: IL6R-BP493/IL6R-L (antibody)
chain 1: B2 heavy with D235E, D239G, V266I, Y298D, R332A
chain 2: not shown
B8: IL6R-BP479/IL6R-L (antibody)
chain 1: B2 heavy with V266I, V268L, R332A
chain 2: not shown
B9: IL6R-BP267/IL6R-LにS267Gの改変が加えられた改変体 (antibody, human IgG1)
heavy: B2 heavy with A269G, R332A
light: B2 light
notes: also called IL6R-BP267 + S267G
B10: IL6R-BP267/IL6R-LにV266Mの改変が加えられた改変体 (antibody, human IgG1)
heavy: B2 heavy with V268M, A269S, R332A
light: B2 light
notes: also called IL6R-BP267 + V266M
B11: IL6R-BP267/IL6R-LにS267Eの改変が加えられた改変体 (antibody, human IgG1)
heavy: B2 heavy with A269E, R332A
light: B2 light
notes: also called IL6R-BP267 + S267E
B12: IL6R-BP450/IL6R-L (antibody, human IgG1)
heavy: B2 heavy with P398F
light: B2 light
B13: IL6R-BP267/IL6R-LにV264Iの改変が加えられた改変体 (antibody, human IgG1)
heavy: B2 heavy with V266I, A269S, R332A
light: B2 light
notes: also called IL6R-BP267 + V264I
B14: IL6R-BP456/IL6R-L (antibody, human IgG1)
heavy: B2 heavy with P398M
light: B2 light
B15: IL6R-BP267/IL6R-LにV266Fの改変が加えられた改変体 (antibody, human IgG1)
heavy: B2 heavy with V268F, A269S, R332A
light: B2 light
notes: also called IL6R-BP267 + V266F
B16: IL6R-BP458/IL6R-L (antibody, human IgG1)
heavy: B2 heavy with P398Q
light: B2 light
B17: IL6R-BP459/IL6R-L (antibody, human IgG1)
heavy: B2 heavy with P398R
light: B2 light
B18: IL6R-BP464/IL6R-L (antibody, human IgG1)
heavy: B2 heavy with P398Y
light: B2 light
B19: IL6R-BP453/IL6R-L (antibody, human IgG1)
heavy: B2 heavy with P398I
light: B2 light
B20: IL6R-BP253/IL6R-L (antibody, human IgG1)
heavy: B2 heavy with D235E, D239G, D240P, A269E, E270H, G273P, L330F, R332A
light: B2 light
notes: comparison antibody with the known FcγRIIb-enhancing substitutions
B21: IL6R-BP454/IL6R-L (antibody, human IgG1)
heavy: B2 heavy with P398K
light: B2 light
B22: IL6R-BP448/IL6R-L (antibody, human IgG1)
heavy: B2 heavy with P398D
light: B2 light
B23: IL6R-BP267/IL6R-LにS267Aの改変が加えられた改変体 (antibody, human IgG1)
heavy: B2 heavy with R332A
light: B2 light
notes: also called IL6R-BP267 + S267A
B24: IL6R-BP449/IL6R-L (antibody, human IgG1)
heavy: B2 heavy with P398E
light: B2 light
B25: IL6R-BP267/IL6R-LにE269Dの改変が加えられた改変体 (antibody, human IgG1)
heavy: B2 heavy with A269S, E271D, R332A
light: B2 light
notes: also called IL6R-BP267 + E269D
B26: IL6R-BP455/IL6R-L (antibody, human IgG1)
heavy: B2 heavy with P398L
light: B2 light

Experiments:
マウスFcγRIII = target: T1, マウスFcγRIII (mouse, UniProt P08508 31-215, limits assumed); assay: SPR, Biacore; antibody captured on immobilised mouse FcRn, FcγR as analyte, pH 7.4, 25C
T1 construct: also called mouse FcγRIII
T1 sequence (looked up): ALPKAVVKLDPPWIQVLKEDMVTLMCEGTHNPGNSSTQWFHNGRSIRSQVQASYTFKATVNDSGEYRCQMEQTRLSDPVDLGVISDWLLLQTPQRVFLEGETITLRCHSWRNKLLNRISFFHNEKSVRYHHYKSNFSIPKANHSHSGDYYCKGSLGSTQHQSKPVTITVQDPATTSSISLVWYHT

マウスFcγRIIb = target: T2, マウスFcγRIIb (mouse, UniProt P08101 30-210, limits assumed); assay: as above
T2 construct: also called mouse FcγRIIb
T2 sequence (looked up): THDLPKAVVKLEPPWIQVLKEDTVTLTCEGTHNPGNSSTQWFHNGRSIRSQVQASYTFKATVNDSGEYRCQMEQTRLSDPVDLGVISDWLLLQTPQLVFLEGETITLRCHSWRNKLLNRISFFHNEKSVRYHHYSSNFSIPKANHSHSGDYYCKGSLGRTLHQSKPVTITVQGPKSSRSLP

マウスFcγRI = target: T3, マウスFcγRI (mouse, UniProt P26151 25-297, limits assumed); assay: as above
T3 construct: also called mouse FcγRI
T3 sequence (looked up): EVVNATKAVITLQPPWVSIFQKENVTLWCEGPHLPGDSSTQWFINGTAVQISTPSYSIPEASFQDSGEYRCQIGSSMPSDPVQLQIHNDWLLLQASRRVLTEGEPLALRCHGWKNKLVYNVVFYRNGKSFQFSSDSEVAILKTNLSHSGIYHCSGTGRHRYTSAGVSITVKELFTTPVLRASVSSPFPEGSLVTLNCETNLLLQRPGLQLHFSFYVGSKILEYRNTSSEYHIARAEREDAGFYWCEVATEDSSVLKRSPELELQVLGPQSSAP

ヒトFcγRIIb [1] = target: T4, ヒトFcγRIIb (human, UniProt P31994 43-217); assay: SPR, KD
T4 construct: extracellular domain; for the crystals it was expressed with kifunensine and its N-glycans trimmed with Endo F1; also called FcγRIIb細胞外領域
T4 sequence (looked up): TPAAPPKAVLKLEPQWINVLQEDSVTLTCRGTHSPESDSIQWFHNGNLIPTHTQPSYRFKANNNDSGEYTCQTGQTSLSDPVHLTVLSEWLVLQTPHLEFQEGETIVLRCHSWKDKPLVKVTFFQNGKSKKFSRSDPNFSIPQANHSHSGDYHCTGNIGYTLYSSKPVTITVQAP

ヒトFcγRIIb [2] = target: T4, ヒトFcγRIIb; assay: SPR; KD for FcγRIIaR divided by KD for FcγRIIb
ヒトFcγRIa = ヒトFcγRIa (human, UniProt P12314 16-292); assay: SPR, KD
Chain of ヒトFcγRIa (P12314 16-292): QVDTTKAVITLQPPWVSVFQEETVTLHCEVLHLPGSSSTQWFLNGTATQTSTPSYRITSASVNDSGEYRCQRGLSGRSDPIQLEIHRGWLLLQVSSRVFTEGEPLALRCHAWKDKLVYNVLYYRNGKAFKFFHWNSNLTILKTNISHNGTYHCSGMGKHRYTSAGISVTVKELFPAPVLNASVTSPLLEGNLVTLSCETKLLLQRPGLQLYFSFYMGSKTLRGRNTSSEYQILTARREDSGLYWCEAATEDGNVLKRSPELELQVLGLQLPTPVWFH

ヒトFcγRIIa (H) = target: T5, ヒトFcγRIIa (H) (human, UniProt P12318 34-217); assay: SPR, KD
T5 construct: extracellular domain; also called FcγRIIa H型
T5 sequence (looked up): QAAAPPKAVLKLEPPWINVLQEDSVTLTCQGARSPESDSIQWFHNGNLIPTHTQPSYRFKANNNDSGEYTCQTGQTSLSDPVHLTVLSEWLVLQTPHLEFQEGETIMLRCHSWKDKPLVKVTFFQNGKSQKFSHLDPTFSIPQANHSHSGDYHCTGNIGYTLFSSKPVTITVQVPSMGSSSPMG

ヒトFcγRIIb [3] = target: T4, ヒトFcγRIIb; assay: SPR, KD; reference IL6R-BP230/IL6R-L

Binder	binding result (ヒトFcγRIIb [1])	other results
B1	–	binding result (マウスFcγRIII): binds; binding result (マウスFcγRIIb): binds; binding result (マウスFcγRI): binds
B2	binds	–
B3	–	KD (IIaR)/KD (IIb) (ヒトFcγRIIb [2]): 32.2 ratio
B4	–	binding result (ヒトFcγRIa): binds; binding result (ヒトFcγRIIa (H)): binds
B5	–	fold enhancement of binding against IL6R-BP230/IL6R-L (ヒトFcγRIIb [3]): 1.2 fold
B6	–	KD (IIaR)/KD (IIb) (ヒトFcγRIIb [2]): 10 ratio
B7	–	KD (IIaR)/KD (IIb) (ヒトFcγRIIb [2]): 52.1 ratio
B8	–	KD (IIaR)/KD (IIb) (ヒトFcγRIIb [2]): 16.1 ratio
B9	binds	–
B10	binds	–
B11	binds	–
B12	binds	–
B13	binds	–
B14	binds	–
B15	binds	–
B16	binds	–
B17	binds	–
B18	binds	–
B19	binds	–
B20	–	binding result (ヒトFcγRIa): binds; binding result (ヒトFcγRIIa (H)): binds
B21	binds	–
B22	binds	–
B23	binds	–
B24	binds	–
B25	binds	–
B26	binds	–
